Test results: publication PMC9977947, “Targeting ATAD3A-PINK1-mitophagy axis overcomes chemoimmunotherapy resistance by redirecting PD-L1 to mitochondria” (Cell Research, 2023)
No end group written: not given here.

Target: T1, Flag-labeled truncated PINK1 (amino acids 321-509) (UniProt Q9BXM7 321-509)
T1 construct: PINK1, amino acids 321-509; also called C-lobe of kinase domain of PINK1; kinase domain C; source: HEK293T, purified using 3x Flag peptide
Experiment: pull-down; purified Flag-PINK1 (full length or truncated) incubated with biotin-labeled PD-L1 ICD peptide in 25 mM Tris-HCl pH 7.4, 150 mM NaCl, 1 mM EDTA, 0.05% NP-40, 10% glycerol for 12 h at 4 °C; streptavidin sepharose beads or anti-Flag M2 affinity gel 1.5 h; five washes; immunoblot
Conditions: both partners purified

T1 sequence (Q9BXM7 321-509): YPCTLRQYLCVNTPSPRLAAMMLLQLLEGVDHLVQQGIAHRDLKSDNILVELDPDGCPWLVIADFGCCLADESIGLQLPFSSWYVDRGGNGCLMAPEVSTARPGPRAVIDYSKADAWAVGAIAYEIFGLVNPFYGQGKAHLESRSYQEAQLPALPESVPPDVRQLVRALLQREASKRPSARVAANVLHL

binding result: binds
B1: Biotin-labeled PD-L1 ICD peptide (amino acids 262-290) (peptide, UniProt Q9NZQ7 262-290, looked up)
peptide: RKGRMMDVKKCGIQDTNSKKQSDTHLEET
modifications: also: biotin-labeled, position not given here
notes: PD-L1 (CD274), intracellular domain, amino acids 262-290; also called intracellular domain of PD-L1; intracellular region of PD-L1; source: synthetic peptide (GenScript)
